Data as given in US20260042827A1, “ANTI-WT1 ANTIGEN-BINDING PROTEINS AND USES THEREOF” (UNIVERSITY HEALTH NETWORK, priority 2022, published 2026).

T1: HLA-DP4 (human), P20036
T1 chain 1: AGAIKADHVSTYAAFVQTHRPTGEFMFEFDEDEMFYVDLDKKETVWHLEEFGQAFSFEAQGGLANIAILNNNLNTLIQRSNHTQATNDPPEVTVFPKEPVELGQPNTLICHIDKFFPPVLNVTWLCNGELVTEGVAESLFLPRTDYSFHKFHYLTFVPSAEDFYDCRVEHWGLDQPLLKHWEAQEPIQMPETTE
T1 chain 2: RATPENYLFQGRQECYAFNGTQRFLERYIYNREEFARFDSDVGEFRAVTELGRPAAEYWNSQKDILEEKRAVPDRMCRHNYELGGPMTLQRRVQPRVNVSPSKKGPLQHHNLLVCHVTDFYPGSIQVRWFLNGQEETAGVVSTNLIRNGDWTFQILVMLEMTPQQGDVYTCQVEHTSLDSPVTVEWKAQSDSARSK


Molecular target: T1, HLA-DP4 (human), P20036
Test: competition
Settings: modification not given

IC50 | Binder
8.51 mM | PGCNKRYFKLSHLAMHSRKHT [341A]
7.46 mM | PGCAKRYFKLSHLQMHSRKHT [331A]
4.74 mM | PGCNARYFKLSHLQMHSRKHT [332A]
9.37 mM | PGCNKRYFKLSHLQMHSAKHT [345A]
0.3 mM | PGCNKAYFKLSHLQMHSRKHT [333A]
5.44 mM | PACNKRYFKLSHLQMHSRKHT [329A]
